Laboratory results: doi:10.1101/808618v2

Columns and labels:
Experiment in all cases: purified protein
[1] = substrate: NC(=O)CC[C@H](N)C(=O)O; settings: pH 8.5, 25 °C, 20 mM MgCl2, XMP […], ATP 2 mM fixed
[2] = substrate: Nc1ncnc2c1ncn2[C@@H]1O[C@H](COP(=O)(O)OP(=O)(O)OP(=O)(O)O)[C@@H](O)[C@H]1O; settings: pH 8.5, 25 °C, 20 mM MgCl2, XMP […], Gln 5 mM fixed
[3] = substrate: O=c1[nH]c(=O)c2ncn([C@@H]3O[C@H](COP(=O)(O)O)[C@@H](O)[C@H]3O)c2[nH]1; settings: pH 8.5, 25 °C, 20 mM MgCl2, ATP 2 mM, Gln 5 mM fixed

B1: PfGMPS (Plasmodium falciparum 3D7) (protein)
chain: MEGEEYDKILVLNFGSQYFHLIVKRLNNIKIFSETKDYGVELKDIKDMNIKGVILSGGPYSVTEAGSPHLKKEVFEYFLEKKIPIFGICYGMQEIAVQMNGEVKKSKTSEYGCTDVNILRNDNINNITYCRNFGDSSSAMDLYSNYKLMNETCCLFENIKSDITTVWMNHNDEVTKIPENFYLVSSSENCLICSIYNKEYNIYGVQYHPEVYESLDGELMFYNFAYNICKCKKQFDPIRYHELELKNIEKYKHDHYVIAAMSGGIDSTVAAAYTHKIFKERFFGIFIDNGLLRKNEAENVYTFLKSTFPDMNITKIDASENFLSNLQGVTDPEQKRKIIGKLFIEEFEKAVNNIDIDINKTFLLQGTLYPDIIESKCSKNLSDTIKTHHNVGGLPKNLKFKLFEPFKYLFKDDVKTLSRELNLPEEITNRHPFPGPGLAIRVIGEINKHKLNILREVDDIFINDLKQYGLYNQISQAFAVLLSSKSVGVRGDARSYDYVCVLRAVKTSSFMTANWYQIPYDILDKITTRILSEVKGVNRILYDVSSKPPATIEFE
Km [1]: 330 ± 20 µM
kcat [1]: 0.766 ± 0.005 s⁻¹
Km [2]: 119 ± 2 µM
kcat [2]: 0.893 ± 0.039 s⁻¹
Km [3]: 7.1 ± 1 µM
kcat [3]: 0.741 ± 0.058 s⁻¹
